# Assay results from patent US20210403527A1 (published 2021).
# T1: NY-ESO-1 peptide on HLA-A*02:01 (human)
# T1 peptide: SLLMWITQC
# Biological target: T1, NY-ESO-1 peptide on HLA-A*02:01
# Assay: multimer staining
row,binding result,Binder
1,recognises,"TCR063 (TCR, V domains shown) Valpha: QKEVEQNSGPLSVPEGAIASLNCTYSDRGSQSFFWYRQYSGKSPELIMSIYSNGDKEDGRFTAQLNKASQYVSLLIRDSQPSDSATYLCAVNILASGGSYIPTFGRGTSLIVHP Vbeta: ETGVTQTPRHLVMGMTNKKSLKCEQHLGHNAMYWYKQSAKKPLELMFVYNFKEQTENNSVPSRFSPECPNSSHLFLHLHTLQPEDSALYLCASSHGTGYNYGYTFGSGTRLTVV"
2,recognises,"TCR184 (TCR, V domains shown) Valpha: DQQVKQNSPSLSVQEGRISILNCDYTNSMFDYFLWYKKYPAEGPTFLISISSIKDKNEDGRFTVFLNKSAKHLSLHIVPSQPGDSAVYFCAARKNYGGSQGNLIFGKGTKLSVKP Vbeta: DAGVTQSPTHLIKTRGQQVTLRCSPISGHKSVSWYQQVLGQGPQFIFQYYEKEERGRGNFPDRFSARQFPNYSSELNVNALLLGDSALYLCASSLGSYDYTFGSGTRLTVV"
3,recognises,"TCR108 (TCR, V domains shown) Valpha: GENVEQHPSTLSVQEGDSAVIKCTYSDSASNYFPWYKQELGKRPQLIIDIRSNVGEKKDQRIAVTLNKTAKHFSLHITETQPEDSAVYFCAASMKDSSYKLIFGSGTRLLVRP Vbeta: ETGVTQTPRHLVMGMTNKKSLKCEQHLGHNAMYWYKQSAKKPLELMFVYNFKEQTENNSVPSRFSPECPNSSHLFLHLHTLQPEDSALYLCASSQGPGYTFGSGTRLTVV"
4,recognises,"TCR317 (TCR, V domains shown) Valpha: QKEVEQNSGPLSVPEGAIASLNCTYSDRGSQSFFWYRQYSGKSPELIMSIYSNGDKEDGRFTAQLNKASQYVSLLIRDSQPSDSATYLCAVNSSPYKLSFGAGTTVTVRA Vbeta: ETGVTQTPRHLVMGMTNKKSLKCEQHLGHNAMYWYKQSAKKPLELMFVYNFKEQTENNSVPSRFSPECPNSSHLFLHLHTLQPEDSALYLCASSQGPGYTFGSGTRLTVV"
5,recognises,"TCR090 (TCR, V domains shown) Valpha: GENVEQHPSTLSVQEGDSSVIKCTYSDSASNYFPWYKQELGKRPQLIIDIRSNVGEKKDQRIAVTLNKTAKHFSLHITETQPEDSAVYFCAATGYGQNFVFGPGTRLSVLP Vbeta: EAQVTQNPRYLITVTGKKLTVTCSQNMNHEYMSWYRQDPGLGLRQIYYSMNVEVTDKGDVPEGYKVSRKEKRNFPLILESPSPNQTSLYFCASSLRGPYGYTFGSGTRLTVV"
6,recognises,"TCR001 (TCR, V domains shown) Valpha: DAKTTQPNSMESNEEEPVHLPCNHSTISGTDYIHWYRQLPSQGPEYVIHGLTSNVNNRMASLAIAEDRKSSTLILHRATLRDAAVYYCILRPDSWGKFQFGAGTQVVVTP Vbeta: NAGVTQTPKFRILKIGQSMTLQCAQDMNHNYMYWYRQDPGMGLKLIYYSVGAGITDKGEVPNGYNVSRSTTEYFPLRLELAAPSQTSVYFCASSYSGGSPLHFGNGTRLTVT"
7,recognises,"TCR050 (TCR, V domains shown) Valpha: DAKTTQPNSMESNEEEPVHLPCNHSTISGTDYIHWYRQLPSQGPEYVIHGLTSNVNNRMASLAIAEDRKSSTLILHRATLRDAAVYYCILREGNNDMRFGAGTRLTVKP Vbeta: NAGVTQTPKFRILKIGQSMTLQCAQDMNHNYMYWYRQDPGMGLKLIYYSVGAGITDKGEVPNGYNVSRSTTEYFPLRLELAAPSQTSVYFCASSWTDNQPQHFGDGTRLSIL"
8,recognises,"TCR167 (TCR, V domains shown) Valpha: DAKTTQPNSMESNEEEPVHLPCNHSTISGTDYIHWYRQLPSQGPEYVIHGLTSNVNNRMASLAIAEDRKSSTLILHRATLRDAAVYYCILRPDSWGKFQFGAGTQVVVTP Vbeta: GAVVSQHPSWVICKSGTCVKIECRSLDFQATTMFWYRQFPKQSLMLMATSNEGSKATYEQGVEKDKFLINHASLTLSTLTVAGAHPEDSSFYICSAMTVMNTEAFFGQGTRLTVV"
9,recognises,"TCR018 (TCR, V domains shown) Valpha: AQTVTQSQPEMSVQEAETVTLSCTYDTSESDYYLFWYKQPPSRQMILVIRQEAYKQQNATENRFSVNFQKAAKSFSLKISDSQLGDAAMYFCAYRSANSGYALNFGKGTSLLVTP Vbeta: ETGVTQTPRHLVMGMTNKKSLKCEQHLGHNAMYWYKQSAKKPLELMFVYNFKEQTENNSVPSRFSPECPNSSHLFLHLHTLQPEDSALYLCASSQAHYTEAFFGQGTRLTVV"
10,recognises,"TCR188 (TCR, V domains shown) Valpha: DAKTTQPNSMESNEEEPVHLPCNHSTISGTDYIHWYRQLPSQGPEYVIHGLTSNVNNRMASLAIAEDRKSSTLILHRATLRDAAVYYCILNTGTASKLTFGTGTRLQVTL Vbeta: GAVVSQHPSWVICKSGTSVKIECRSLDFQATTMFWYRQFPKQSLMLMATSNEGSKATYEQGVEKDKFLINHASLTLSTLTVTSAHPEDSSFYICSAKEGTEAFFGQGTRLTVV"
